Results on 5 molecules are retold here after paper PMC6600395, “p53 Binds Preferentially to Non-B DNA Structures Formed by the Pyrimidine-Rich Strands of GAA·TTC Trinucleotide Repeats Associated with Friedreich’s Ataxia”.

For data set [1], the target named is p53CT (C-terminal segment) (human, UniProt P04637 320-393). The data set can be described thus: EMSA; 50 ng pBSK/SmaI competitor; EMSA: 5 mM Tris-HCl pH 7.6, 0.5 mM EDTA, 0.5 mM DTT, 0.01% Triton X-100, 50 mM KCl, 15 min on ice (agarose 4 °C), pBSK/SmaI competitor in PAGE EMSA; ELISA: same without EDTA, 4 °C, 20 min. To be noted: protein: recombinant, tags: GST (GST-p53CT, pGEX-2TK), chain copies: 4, label: 5'-32P on Lock-F (EMSA), 3'-biotin on Lock-F (ELISA), lock clamp, 3' overhang 3 nt on lock strand. For orientation: Mobility shift assays separate free from complexed probe on a gel.

In data set [2] the target is T1, p53CD (core domain) (human, UniProt P04637 94-312). The experiment in a line: EMSA; no stable complex; 50 ng pBSK/SmaI; EMSA: 5 mM Tris-HCl pH 7.6, 0.5 mM EDTA, 0.5 mM DTT, 0.01% Triton X-100, 50 mM KCl, 15 min on ice (agarose 4 °C), pBSK/SmaI competitor in PAGE EMSA; ELISA: same without EDTA, 4 °C, 20 min. To be noted: protein: recombinant, tags: GST (GST-p53CD, pGEX-4T), label: 5'-32P on Lock-F (EMSA), 3'-biotin on Lock-F (ELISA), lock clamp, 3' overhang 3 nt on lock strand.

Data set [3] deals with T2, p53 (wild type, full length) (human, UniProt P04637 1-393). The experiment in a line: EMSA; 75 ng pBSK/SmaI competitor; EMSA: 5 mM Tris-HCl pH 7.6, 0.5 mM EDTA, 0.5 mM DTT, 0.01% Triton X-100, 50 mM KCl, 15 min on ice (agarose 4 °C), pBSK/SmaI competitor in PAGE EMSA; ELISA: same without EDTA, 4 °C, 20 min. To be noted: protein: recombinant, tags: none stated for pT7-7wtp53 (Methods 3.3 says purified via GST tag), chain copies: 4, label: 5'-32P on Lock-F (EMSA), 3'-biotin on Lock-F (ELISA), lock clamp, 3' overhang 3 nt on lock strand.

Data set [4] concerns the target T2, p53 (wild type, full length). The data set can be described thus: EMSA; stronger than TTCNB and FXN-ANB; 50 ng pBSK/SmaI; EMSA: 5 mM Tris-HCl pH 7.6, 0.5 mM EDTA, 0.5 mM DTT, 0.01% Triton X-100, 50 mM KCl, 15 min on ice (agarose 4 °C), pBSK/SmaI competitor in PAGE EMSA; ELISA: same without EDTA, 4 °C, 20 min. Conditions: protein: recombinant; tags: none stated for pT7-7wtp53 (Methods 3.3 says purified via GST tag); chain copies: 4; label: 5'-32P on Lock-F; lock clamp, Py-rich loop in strand 1; 3' overhang 3 nt on lock strand.

Data set [5] has the same target. The data set can be described thus: EMSA; strongest binder; 75 ng pBSK/SmaI competitor; EMSA: 5 mM Tris-HCl pH 7.6, 0.5 mM EDTA, 0.5 mM DTT, 0.01% Triton X-100, 50 mM KCl, 15 min on ice (agarose 4 °C), pBSK/SmaI competitor in PAGE EMSA; ELISA: same without EDTA, 4 °C, 20 min. Conditions: protein: recombinant; tags: none stated for pT7-7wtp53 (Methods 3.3 says purified via GST tag); chain copies: 4; label: 32P (EMSA); biotin (ELISA); blunt.

Data set [6] concerns the target T1, p53CD (core domain). The data set can be described thus: EMSA; 50 ng pBSK/SmaI competitor; EMSA: 5 mM Tris-HCl pH 7.6, 0.5 mM EDTA, 0.5 mM DTT, 0.01% Triton X-100, 50 mM KCl, 15 min on ice (agarose 4 °C), pBSK/SmaI competitor in PAGE EMSA; ELISA: same without EDTA, 4 °C, 20 min. To be noted: protein: recombinant; tags: GST (GST-p53CD, pGEX-4T); chain copies: 4; label: 32P (EMSA); biotin (ELISA); blunt.

Data set [7] addresses T2, p53 (wild type, full length). The data set can be described thus: ELISA; Kd only in figure; EMSA: 5 mM Tris-HCl pH 7.6, 0.5 mM EDTA, 0.5 mM DTT, 0.01% Triton X-100, 50 mM KCl, 15 min on ice (agarose 4 °C), pBSK/SmaI competitor in PAGE EMSA; ELISA: same without EDTA, 4 °C, 20 min. Conditions: protein: recombinant; tags: none stated for pT7-7wtp53 (Methods 3.3 says purified via GST tag); chain copies: 4; label: 5'-32P on Lock-F (EMSA); 3'-biotin on Lock-F (ELISA); lock clamp, T loop in strand 1; 3' overhang 3 nt on lock strand.

The mark [8] stands for this setting: unpaired (TTC)11 loop in strand 1.

T2 sequence (P04637 whole entry): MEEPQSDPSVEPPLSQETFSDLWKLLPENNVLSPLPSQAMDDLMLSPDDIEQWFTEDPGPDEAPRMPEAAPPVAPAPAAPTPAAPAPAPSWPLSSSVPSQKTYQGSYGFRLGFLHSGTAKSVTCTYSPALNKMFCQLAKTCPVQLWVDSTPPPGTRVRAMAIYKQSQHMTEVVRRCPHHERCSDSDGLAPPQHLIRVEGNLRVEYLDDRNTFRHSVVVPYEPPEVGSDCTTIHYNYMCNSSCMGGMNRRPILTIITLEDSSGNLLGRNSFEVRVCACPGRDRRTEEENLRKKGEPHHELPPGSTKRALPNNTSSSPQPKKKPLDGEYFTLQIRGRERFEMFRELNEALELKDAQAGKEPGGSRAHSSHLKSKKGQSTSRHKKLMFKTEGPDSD
T1 sequence (P04637 94-312): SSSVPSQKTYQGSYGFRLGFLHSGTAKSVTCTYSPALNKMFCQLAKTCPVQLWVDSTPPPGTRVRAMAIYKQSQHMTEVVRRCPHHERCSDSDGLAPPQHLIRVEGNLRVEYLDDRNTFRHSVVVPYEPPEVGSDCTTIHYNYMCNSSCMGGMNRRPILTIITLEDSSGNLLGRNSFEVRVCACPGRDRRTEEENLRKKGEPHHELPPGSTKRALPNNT
Chain of p53CT (C-terminal segment) (P04637 320-393): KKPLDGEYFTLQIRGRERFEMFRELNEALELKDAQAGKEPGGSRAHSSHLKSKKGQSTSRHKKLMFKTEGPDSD

B1: CTGNB (structured_DNA)
DNA 1: GGGGCCTTAGGTACTGCTGCTGCTGCTGCTGCTGCTGCTGCTGCTGATGGTACCGCGG
DNA 2: CCGCGGTACCATTACCTAAGGCCCCAAC
Consider B1, for which the binding result in data set [1] ((CTG)11 hairpin in strand 1) was “binds”; in the data set with p53CD (core domain) [2] ((CTG)11 hairpin in strand 1), “no binding”; in data set [3] ((CTG)11 hairpin in strand 1) it was “binds”.

B2: FXN-TNB (structured_DNA)
DNA 1: GGGGCCTTAGGTATTTTCTTTATTTTCTTCTTCTTCTTCTTCTTTTTTTTTTTTTTTTGTATTTTTTATGGTACCGCGG
DNA 2: CCGCGGTACCATTACCTAAGGCCCCAAC
Take B2: the binding result in data set [4] was “binds”.

B3: TTCNB (structured_DNA)
DNA 1: GGGGCCTTAGGTATTCTTCTTCTTCTTCTTCTTCTTCTTCTTCTTCATGGTACCGCGG
DNA 2: CCGCGGTACCATTACCTAAGGCCCCAAC
Turning to B3, the binding result in data set [1] (setting [8]) is “binds”; with p53CD (core domain) [2] (setting [8]), “no binding”; in data set [3] (setting [8]), “binds”.

B4: CON (p53CON) (dsDNA)
DNA 1: GACGGTATCGATAAGAGACATGCCTAGACATGCCTCTTGATATCGAATTC
DNA 2: GAATTCGATATCAAGAGGCATGTCTAGGCATGTCTCTTATCGATACCGTC
As for B4, the binding result (in data set [5]; with p53CD (core domain) [6]) was “binds” each time.

B5: TNB (structured_DNA)
DNA 1: GGGGCCTTAGGTATTTTTTTTTTTTTTTTTTTTTTTTTTTTTTTTTATGGTACCGCGG
DNA 2: CCGCGGTACCATTACCTAAGGCCCCAAC
Turning to B5, the binding result in data set [1] (T loop in strand 1) is “binds”; with p53CD (core domain) [2] (T loop in strand 1), “no binding”; in data set [7] it was “binds”.
